{"source": "IntAct's records for PubMed 21685874", "parents": {"B1": {"name": "SAGA-associated factor 29 (Homo sapiens), Q96ES7 (parent)", "chain": "MALVSADSRIAELLTELHQLIKQTQEERSRSEHNLVNIQKTHERMQTENKISPYYRTKLRGLYTTAKADAEAECNILRKALDKIAEIKSLLEERRIAAKIAGLYNDSEPPRKTMRRGVLMTLLQQSAMTLPLWIGKPGDKPPPLCGAIPASGDYVARPGDKVAARVKAVDGDEQWILAEVVSYSHATNKYEVDDIDEEGKERHTLSRRRVIPLPQWKANPETDPEALFQKEQLVLALYPQTTCFYRALIHAPPQRPQDDYSVLFEDTSYADGYSPPLNVAQRYVVACKEPKKK"}}, "data": [{"variants_of": "B1", "conditions": "with h31_human H3C1, P68431", "values": [{"variant": "MALVSADSRIAELLTELHQLIKQTQEERSRSEHNLVNIQKTHERMQTENKISPYYRTKLRGLYTTAKADAEAECNILRKALDKIAEIKSLLEERRIAAKIAGLYNDSEPPRKTMRRGVLMTLLQQSAMTLPLWIGKPGDKPPPLCGAIPASGDYVARPGDKVAARVKAVDGDEQWILAEVVSYSHATNKYEVDDIDEEGKERHTLSRRRVIPLPQWKANPETDPEALFQKEQLVLALYPQTTCFARALIHAPPQRPQDDYSVLFEDTSYADGYSPPLNVAQRYVVACKEPKKK", "note": "[Y245A]", "effect of a mutation on the interaction": "disrupting interaction"}]}, {"variants_of": "B1", "conditions": "with h31_human H3C1, P68431", "remark": "another data set of the same source", "values": [{"variant": "MALVSADSRIAELLTELHQLIKQTQEERSRSEHNLVNIQKTHERMQTENKISPYYRTKLRGLYTTAKADAEAECNILRKALDKIAEIKSLLEERRIAAKIAGLYNDSEPPRKTMRRGVLMTLLQQSAMTLPLWIGKPGDKPPPLCGAIPASGDYVARPGDKVAARVKAVDGDEQWILAEVVSYSHATNKYEVDDIDEEGKERHTLSRRRVIPLPQWKANPETDPEALFQKEQLVLALYPATTCFYRALIHAPPQRPQDDYSVLFEDTSYADGYSPPLNVAQRYVVACKEPKKK", "note": "[Q240A]", "effect of a mutation on the interaction": "decreasing interaction"}]}, {"variants_of": "B1", "conditions": "with h31_human H3C1, P68431", "remark": "another data set of the same source", "values": [{"variant": "MALVSADSRIAELLTELHQLIKQTQEERSRSEHNLVNIQKTHERMQTENKISPYYRTKLRGLYTTAKADAEAECNILRKALDKIAEIKSLLEERRIAAKIAGLYNDSEPPRKTMRRGVLMTLLQQSAMTLPLWIGKPGDKPPPLCGAIPASGDYVARPGDKVAARVKAVDGDEQWILAEVVSYSHATNKYEVDDIDEEGKERHTLSRRRVIPLPQWKANPETDPEALFQKEQLVLALYPQTACFYRALIHAPPQRPQDDYSVLFEDTSYADGYSPPLNVAQRYVVACKEPKKK", "note": "[T242A]", "effect of a mutation on the interaction": "decreasing interaction"}]}, {"variants_of": "B1", "conditions": "with h31_human H3C1, P68431", "remark": "another data set of the same source", "values": [{"variant": "MALVSADSRIAELLTELHQLIKQTQEERSRSEHNLVNIQKTHERMQTENKISPYYRTKLRGLYTTAKADAEAECNILRKALDKIAEIKSLLEERRIAAKIAGLYNDSEPPRKTMRRGVLMTLLQQSAMTLPLWIGKPGDKPPPLCGAIPASGDYVARPGDKVAARVKAVDGDEQWILAEVVSYSHATNKYEVDDIDEEGKERHTLSRRRVIPLPQWKANPETDPEALFQKEQLVLALAPQTTCFYRALIHAPPQRPQDDYSVLFEDTSYADGYSPPLNVAQRYVVACKEPKKK", "note": "[Y238A]", "effect of a mutation on the interaction": "decreasing interaction"}]}, {"variants_of": "B1", "conditions": "with h31_human H3C1, P68431", "remark": "another data set of the same source", "values": [{"variant": "MALVSADSRIAELLTELHQLIKQTQEERSRSEHNLVNIQKTHERMQTENKISPYYRTKLRGLYTTAKADAEAECNILRKALDKIAEIKSLLEERRIAAKIAGLYNDSEPPRKTMRRGVLMTLLQQSAMTLPLWIGKPGDKPPPLCGAIPASGDYVARPGDKVAARVKAVDGDEQWILAEVVSYSHATNKYEVDAIDEEGKERHTLSRRRVIPLPQWKANPETDPEALFQKEQLVLALYPQTTCFYRALIHAPPQRPQDDYSVLFEDTSYADGYSPPLNVAQRYVVACKEPKKK", "note": "[D194A]", "effect of a mutation on the interaction": "disrupting interaction"}]}, {"variants_of": "B1", "conditions": "with h31_human H3C1, P68431", "remark": "another data set of the same source", "values": [{"variant": "MALVSADSRIAELLTELHQLIKQTQEERSRSEHNLVNIQKTHERMQTENKISPYYRTKLRGLYTTAKADAEAECNILRKALDKIAEIKSLLEERRIAAKIAGLYNDSEPPRKTMRRGVLMTLLQQSAMTLPLWIGKPGDKPPPLCGAIPASGDYVARPGDKVAARVKAVDGDEQWILAEVVSYSHATNKYEVDDIREEGKERHTLSRRRVIPLPQWKANPETDPEALFQKEQLVLALYPQTTCFYRALIHAPPQRPQDDYSVLFEDTSYADGYSPPLNVAQRYVVACKEPKKK", "note": "[D196R]", "effect of a mutation on the interaction": "disrupting interaction"}]}, {"variants_of": "B1", "conditions": "with h31_human H3C1, P68431", "remark": "another data set of the same source", "values": [{"variant": "MALVSADSRIAELLTELHQLIKQTQEERSRSEHNLVNIQKTHERMQTENKISPYYRTKLRGLYTTAKADAEAECNILRKALDKIAEIKSLLEERRIAAKIAGLYNDSEPPRKTMRRGVLMTLLQQSAMTLPLWIGKPGDKPPPLCGAIPASGDYVARPGDKVAARVKAVDGDEQWILAEVVSYSHATNKYEVDDIAEEGKERHTLSRRRVIPLPQWKANPETDPEALFQKEQLVLALYPQTTCFYRALIHAPPQRPQDDYSVLFEDTSYADGYSPPLNVAQRYVVACKEPKKK", "note": "[D196A]", "effect of a mutation on the interaction": "decreasing interaction"}]}, {"variants_of": "B1", "conditions": "with h31_human H3C1, P68431", "remark": "another data set of the same source", "values": [{"variant": "MALVSADSRIAELLTELHQLIKQTQEERSRSEHNLVNIQKTHERMQTENKISPYYRTKLRGLYTTAKADAEAECNILRKALDKIAEIKSLLEERRIAAKIAGLYNDSEPPRKTMRRGVLMTLLQQSAMTLPLWIGKPGDKPPPLCGAIPASGDYVARPGDKVAARVKAVDGDEQWILAEVVSYSHATNKYEVDDIAEEGKERHTLSRRRVIPLPQWKANPETDPEALFQKEQLVLALYPQTTCFYRALIHAPPQRPQDDYSVLFEDTSYADGYSPPLNVAQRYVVACKEPKKK", "note": "[D196A]", "effect of a mutation on the interaction": "disrupting interaction"}]}, {"variants_of": "B1", "conditions": "with h31_human H3C1, P68431", "remark": "another data set of the same source", "values": [{"variant": "MALVSADSRIAELLTELHQLIKQTQEERSRSEHNLVNIQKTHERMQTENKISPYYRTKLRGLYTTAKADAEAECNILRKALDKIAEIKSLLEERRIAAKIAGLYNDSEPPRKTMRRGVLMTLLQQSAMTLPLWIGKPGDKPPPLCGAIPASGDYVARPGDKVAARVKAVDGDEQWILAEVVSYSHATNKYEVDDIDEEGKERHTLSRRRVIPLPQWKANPETDPEALFQKEQLVLALYPQTTCFYRALIHAPPQRPQDDYSVLFEATSYADGYSPPLNVAQRYVVACKEPKKK", "note": "[D266A]", "effect of a mutation on the interaction": "decreasing interaction"}]}, {"variants_of": "B1", "conditions": "with h31_human H3C1, P68431", "remark": "another data set of the same source", "values": [{"variant": "MALVSADSRIAELLTELHQLIKQTQEERSRSEHNLVNIQKTHERMQTENKISPYYRTKLRGLYTTAKADAEAECNILRKALDKIAEIKSLLEERRIAAKIAGLYNDSEPPRKTMRRGVLMTLLQQSAMTLPLWIGKPGDKPPPLCGAIPASGDYVARPGDKVAARVKAVDGDEQWILAEVVSYSHATNKYEVDDIDEEGKERHTLSRRRVIPLPQWKANPETDPEALFQKEQLVLALYPQTTCFYRALIHAPPQRPQDDYSVLAEDTSYADGYSPPLNVAQRYVVACKEPKKK", "note": "[F264A]", "effect of a mutation on the interaction": "decreasing interaction"}]}]}
